The term stoichiometry N denotes a count of units in the complex or per binding partner.

Changes are numbered by the printed parent chain. Values joined by “and” are separate entries in the source; they are usually repeats but may differ in a detail not shown here. Equal values may be shown once.

These results are taken from PMC5789003, “Structural and functional characterization of shaft, anchor, and tip proteins of the Mfa1 fimbria from the periodontal pathogen Porphyromonas gingivalis” (Scientific Reports, 2018).

The labels stand for the following.
B1: Mfa2 (anchor protein of the Mfa1 fimbria), wild type, in P. gingivalis (natural protein)
chain: CDKMIYDNYDDCPRGVYVNFYSQTECAENPSYPAEVARLNVYAFDKDGILRSANVFEDVQLSAAKEWLIPLEKDGLYTIFAWGNIDDHYNIGEIKIGETTKQQVLMRLKQDGKWATNIDGTTLWYATSPVVELKNMEDGADQYIHTRANLREYTNRVTVSVDSLPHPENYEIKLASSNGSYRFDGTVAKADSTYYPGETKVVGDSTCRAFFTTLKLESGHENTLSVTHKPTGREIFRTDLVGAILSSQYAQNINLRCINDFDIRLVAHHCNCPDDTYVVVQIWINGWLIHSYEIEL
modifications: lipidated cysteine (Cys29); disulphide bonds Cys54-Cys285 and Cys298-Cys300
B2: Mfa2 C285A (natural protein)
chain: B1 chain with C257A
notes: source: P. gingivalis Δmfa2Δfim complemented with mfa2C285A, whole cell lysate
B3: Mfa2 C54A (natural protein)
chain: B1 chain with C26A
notes: source: P. gingivalis Δmfa2Δfim complemented with mfa2C54A, whole cell lysate

This series deals with the molecule itself. Description: SDS-PAGE and immunoblot of partially heat-denatured fimbriae (ladder-like pattern).
Take B1: the “stoichiometry N” value was 2 and 3.
For the protein B2, the “stoichiometry N” value was 3 and 2.
The same measure for B3: 2 and 3.
